T1: mouse E-selectin extracellular domain with 10 His purification tail (mouse, UniProt Q00690 22-557)
T1 construct: also called soluable mouse E-selectin extracellular domain; muE-Selctin
T1 sequence: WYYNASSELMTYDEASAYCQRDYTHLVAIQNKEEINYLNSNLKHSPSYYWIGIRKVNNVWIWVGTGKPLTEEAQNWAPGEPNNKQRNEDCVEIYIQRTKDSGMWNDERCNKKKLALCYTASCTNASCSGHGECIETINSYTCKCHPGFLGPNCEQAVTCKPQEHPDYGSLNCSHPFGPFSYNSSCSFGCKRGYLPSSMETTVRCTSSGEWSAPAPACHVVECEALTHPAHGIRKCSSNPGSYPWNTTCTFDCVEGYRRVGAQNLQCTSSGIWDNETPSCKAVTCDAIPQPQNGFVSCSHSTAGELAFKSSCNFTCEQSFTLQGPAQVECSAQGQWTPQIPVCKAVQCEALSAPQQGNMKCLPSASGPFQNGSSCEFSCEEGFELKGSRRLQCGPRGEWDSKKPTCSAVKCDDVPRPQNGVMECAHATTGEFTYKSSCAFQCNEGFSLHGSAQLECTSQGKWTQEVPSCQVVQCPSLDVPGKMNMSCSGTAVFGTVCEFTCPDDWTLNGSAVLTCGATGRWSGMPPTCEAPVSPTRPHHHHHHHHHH

T2: human E-selectin, cell-surface expressed (human, UniProt P16581 22-610)
T2 sequence: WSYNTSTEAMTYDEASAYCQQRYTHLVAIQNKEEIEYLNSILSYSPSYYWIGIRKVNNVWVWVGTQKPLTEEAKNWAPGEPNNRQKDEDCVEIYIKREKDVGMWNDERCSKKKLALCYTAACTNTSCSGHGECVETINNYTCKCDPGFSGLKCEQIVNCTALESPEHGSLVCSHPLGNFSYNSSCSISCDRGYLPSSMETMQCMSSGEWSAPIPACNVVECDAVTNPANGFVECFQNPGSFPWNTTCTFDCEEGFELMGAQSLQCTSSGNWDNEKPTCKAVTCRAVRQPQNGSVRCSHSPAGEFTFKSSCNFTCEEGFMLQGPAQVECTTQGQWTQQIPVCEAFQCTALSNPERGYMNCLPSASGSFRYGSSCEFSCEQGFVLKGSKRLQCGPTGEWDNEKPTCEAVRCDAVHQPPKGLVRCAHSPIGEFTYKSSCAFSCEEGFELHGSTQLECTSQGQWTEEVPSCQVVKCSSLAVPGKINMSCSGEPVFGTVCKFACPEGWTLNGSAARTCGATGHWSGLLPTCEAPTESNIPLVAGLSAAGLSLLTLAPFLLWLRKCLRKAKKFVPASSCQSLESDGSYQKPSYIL

T3: soluble recombinant human L-selectin (human, UniProt P14151 39-332, limits assumed)
T3 sequence (looked up): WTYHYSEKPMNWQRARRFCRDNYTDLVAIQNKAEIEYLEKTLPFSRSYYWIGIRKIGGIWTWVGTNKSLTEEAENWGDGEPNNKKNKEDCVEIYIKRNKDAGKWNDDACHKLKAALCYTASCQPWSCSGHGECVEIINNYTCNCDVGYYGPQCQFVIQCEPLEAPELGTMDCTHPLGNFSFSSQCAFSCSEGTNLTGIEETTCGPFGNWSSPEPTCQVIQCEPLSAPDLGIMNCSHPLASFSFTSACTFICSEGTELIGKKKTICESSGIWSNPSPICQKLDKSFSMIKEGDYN


What was measured:
[1] = target: T1, mouse E-selectin extracellular domain …; assay: antigen binding ELISA, HRP detection
Method: 384-well Maxisorp plates were used to capture the human and mouse His-tagged recombinant E-selectin polypeptides. The polypeptides were incubated with chimeric antibodies of varying concentrations and detected with HRP-labeled anti-human IgG1 antibodies.

[2] = target: T2, human E-selectin, cell-surface expressed; assay: cell-based or functional assay
[3] = target: T3, soluble recombinant human L-selectin; assay: direct binding ELISA on immobilized human L-selectin, absorbance at 450 nm
Method: Recombinant histidine tagged human P-, E- or L-selectin (Sino Biologicals), mouse E-selectin (Sino Biologicals), rat E-selectin (Sino Biologicals) and Cynomolgus monkey E-selectin (Sino Biologicals) stock solutions were prepared to a final concentration of 1 μg/mL in phosphate buffered saline without calcium and magnesium. Controls included an L-selectin directed antibody (BioLegend; 304811) or P-selectin directed antibody or a negative control IgG. One hundred μL per well of the diluted recombinant selectin proteins were added into a Ni-NTA HisSorb 96 well plate (Qiagen; 35061). Plates were incubated on an orbital shaker at room temperature for 2 hours. Following the incubation, the plates were washed 3 times with 200 μL of wash buffer (50 mM TRIS [trisaminomethane]; 150 mM sodium chloride; 0.05% polysorbate 20, pH 7.4). To decrease nonspecific binding, plates were treated with 200 μL of blocking buffer (BD Opteia buffer; 555213; BD Biosciences), incubated on an orbital shaker for 1 hour at room temperature and washed as described above. […] One hundred μL specific detection antibodies (described below) were added and incubated for 1 hour: [0556] […] Anti L-selectin and anti-rat-E-selectin antibodies were detected using 1 to 25000 dilution of Peroxidase-conjugated AffiniPure Goat Anti-Mouse IgG (H+L); (Jackson ImnnunoResearch Lab).
Plates were washed and 100 μL per well of 1-Step Ultra TMB substrate (Thermo Scientific) was added and incubated for 5 minutes at room temperature. Reactions were stopped with 100 μL of 2 M sulfuric acid and absorbance read at 450 nm (Spectramax M5e).

Row | Binder | EC50 [1] | static neutralization of HL-60 cell adhesion, CHO-human E-selectin cells-IC50 [2] | binding result [3]
1 | anti-E-selectin antibody 0158 chimera (antibody, human IgG1, kappa, V domains shown, rat VH/VL on effector-null human IgG1 and human kappa) VH: QVQLKESGPGLVQPSETLSLTCTVSGFSISTYNVHWLRQPPGKGLEWMGMMWSGGSPDYNSALKSRLSISRDTSKNQVFLKMNSLQSEDTTTYYCARWGGGFDYWGQGVMVTVSS VL: DIVLTQSPTTLSVTPGETVSLSCRASHSIGTNLHWYQQKTNESPRLLIKFTSQSISGIPSRFSASGSGTDFTLNINNVEFDDVSSYFCQQTQSWPLTFGSGTKLEIKR | > 133 nM |  | 
2 | anti-E-selectin antibody 0039 chimera (antibody, human IgG1, kappa, V domains shown, rat VH/VL on effector-null human IgG1 and human kappa) VH: QVQLKETGPGLVQPTQTLSITCTVSGFSLTGYYMQWVRQTPGKGLEWMGFIRSSGSTEYNSEFKSRLSISRDTSKNQVFLKMNSLKTEDTGVYYCARCPYKYSSFVYVGVMDAWGQGAPVTVSS VL: EIVMTQSPTSMSTSIGERVTLNCKASQTVGINVDWYQQTPGQPPKLLIYGASNRHTGVPDRFTGSGFGRDFTLTISNVEAEDLAVYCCLQYGSIPHTFGPGTKLELKR | > 133 nM |  | 
3 | anti-E-selectin antibody 0180 chimera (antibody, human IgG1, kappa, V domains shown, rat VH/VL on effector-null human IgG1 and human kappa) VH: EVQLQQSGAELGKPGTSVKLSCKVSGYKIRSSYMHWVNQRPGKGLEWIGRIDPANGNTIYGDKFKSKATLTSDTSSNTAYIQLSQLKSDDTAIYFCAIDIGTTFDYWGQGVMVTVSS VL: DIQMTQSPSFLSASVGDRVTINCKASQHINRYLNWYQQKLGEAPKLLIYDANNLQTGIPSRFSGSGSGTDFTLTISSLQPEDVATYFCLQHNSWPNTFGAGTKLELKR | > 133 nM |  | 
4 | anti-E-selectin antibody 0164 chimera (antibody, human IgG1, kappa, V domains shown, rat VH/VL on effector-null human IgG1 and human kappa) VH: EVQLQQSGAEFGKPGTSVKLSCKVSGYNIRSSYMHWVNQRPGKGLEWIGRIDPANGNTIYAEKFKIKAILTADSSSNTAYMQLSQLKSDDTAIYFCAMDLYSTSEYWGQGVMVTVSS VL: DIQMTQSPSFLSASVGDRVTINCKTSQNINRYLNWYQQKLGEAPKLLIYNANSLQTGIPSRFSASGSGTDFTLTINSLQPEDVATYFCLQDNSWPLTFGSGTKLEIKR | > 133 nM | 4.4 nM | 
5 | anti-E-selectin antibody 0159 chimera (antibody, human IgG1, kappa, V domains shown, rat VH/VL on effector-null human IgG1 and human kappa) VH: EVQLQQSGAELGKPGTSVKLSCKVSGYNIRSTYMHWVSQRPGKGLEWIGRIDPANGNTIYAEKFKRKATLTADTSSNTAYMQLSQLKSDDRAIYFCAMEVRVSFEYWGQGVMVTVSS VL: DIQMTQSPSFLSASVGDRVTINCKASQNINKYLDWYQQKLGEGPKLLIYYTNNLHTGIPSRFSGSGSGTDFTLTISSLQPEDVATYFCLQHDSGYTFGAGTKLELKR | > 133 nM |  | 
6 | anti-E-selectin antibody 0170 chimera (antibody, human IgG1, kappa, V domains shown, rat VH/VL on effector-null human IgG1 and human kappa) VH: EVQLQQSGAELGKPGTSVKLSCKVSGYSIRSTYMHWVNQRPGKGLEWVGRIDPANGNTIYAERFKNKATLTADTSSNTAYMQLSQLKSDDTAIYFCAVEILGIFDYWGQGVMVTVSS VL: DIQMTQSPSFLSASVGDRVTINCKASQNIDKYLDWYQQKLGEAPKLLMYNTNSLHTGIPSRFSGSGSGTDFTLTISSLQPEDVATYFCLQHNSGYTFGAGTKLELKR | > 133 nM |  | 
7 | humanized anti-E-selectin antibody 0841 (antibody, human IgG1, kappa, V domains shown, effector-null human IgG1, kappa) VH: EVQLVESGGGLVQPGGSLRLSCAASGYNIRSSYMHWVRQAPGKGLEWVARIDPANGNTIYAEKFKIRFTISADNAKNSAYLQMNSLRAEDTAVYYCAMDLYSTSEYWGQGTLVTVSS VL: DIQMTQSPSSLSASVGDRVTITCKTSQNINRYLNWYQQKPGKAPKLLIYNANSLQTGVPSRFSGSGSGTDFTLTISSLQPEDFATYFCLQDNSWPLTFGQGTKVEIKR |  |  | no binding (tested: 10 ug/ml)
8 | optimized anti-E-selectin antibody 1282 (antibody, human IgG1, kappa, V domains shown, effector-null human IgG1, kappa) VH: EVQLVESGGGLVQPGGSLRLSCAASGYAIRSAYMHWVRQAPGKGLEWVARIDPANGNTIYVDSVEGRFTISADNAKNSAYLQMNSLRAEDTAVYYCAMDLYSTSEYWGQGTLVTVSS VL: DIQMTQSPSSLSASVGDRVTITCKTSQNIERYLNWYQQKPGKAPKLLIYAASSLQSGVPSRFSGSGSGTDFTLTISSLQPEDFATYFCLQDNAWPLTFGQGTKVEIKR |  | 3.4 nM | no binding (tested: 10 ug/ml)
9 | optimized anti-E-selectin antibody 1284 (antibody, human IgG1, kappa, V domains shown, effector-null human IgG1, kappa) VH: EVQLVESGGGLVQPGGSLRLSCAASGYAIRSAYMHWVRQAPGKGLEWVARIDPANGNTIYVESVEGRFTISADNAKNSAYLQMNSLRAEDTAVYYCAMDLYSTSEYWGQGTLVTVSS VL: DIQMTQSPSSLSASVGDRVTITCKTSQNIERYLNWYQQKPGKAPKLLIYAASSLQSGVPSRFSGSGSGTDFTLTISSLQPEDFATYFCLQDNAWPLTFGQGTKVEIKR |  | 4.4 nM | no binding (tested: 10 ug/ml)
10 | optimized anti-E-selectin antibody 1448 (antibody, human IgG1, kappa, V domains shown, effector-null human IgG1, kappa) VH: EVQLVESGGGLVQPGGSLRLSCAASGYAIRSAYMHWVRQAPGKGLEWVARIDPANGNTIYVDSVKERFTISADNAKNSAYLQMNSLRAEDTAVYYCAMDLYSTSEYWGQGTLVTVSS VL: DIQMTQSPSSLSASVGDRVTITCKTSQNIERYLNWYQQKPGKAPKLLIYAASSLQSGVPSRFSGSGSGTDFTLTISSLQPEDFATYFCLQDNAWPLTFGQGTKVEIKR |  | 6.2 nM | no binding (tested: 10 ug/ml)
11 | optimized anti-E-selectin antibody 1444 (antibody, human IgG1, kappa, V domains shown, effector-null human IgG1, kappa) VH: EVQLVESGGGLVQPGGSLRLSCAASGYAIRSAYMHWVRQAPGKGLEWVARIDPANGNTIYVDSVTGRFTISADNAKNSAYLQMNSLRAEDTAVYYCAMDLYSTSEYWGQGTLVTVSS VL: DIQMTQSPSSLSASVGDRVTITCKTSQNIERYLNWYQQKPGKAPKLLIYAASSLQSGVPSRFSGSGSGTDFTLTISSLQPEDFATYFCLQDNAWPLTFGQGTKVEIKR |  | 4.7 nM | no binding (tested: 10 ug/ml)

Source: patent US20240076386A1 (Pfizer, published 2024)
